The record followed here is patent US20100004432, “APTAMER AGAINST MIDKINE AND USE THEREOF” (RIBOMIC INC., published 2010).

Holding throughout (conditions): tags: expressed in yeast
Data set [1] has as its target T1, midkine (full-length) (Homo sapiens, UniProt P21741 P21741:23-143).
T1 sequence: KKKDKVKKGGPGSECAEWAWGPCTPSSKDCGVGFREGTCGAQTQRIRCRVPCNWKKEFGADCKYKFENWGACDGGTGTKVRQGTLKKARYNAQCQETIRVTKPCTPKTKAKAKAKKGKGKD
Nature of the data set: cell_activity; 500 nM RNA. The method, then:
(§1) Chem. 276 (19), 15868-15875, 2001). […] 30 μL of 1.5 μM midkine was applied to the outer surface of the membrane of Chemotaxicell (membrane pore diameter 8 μm, manufactured by Kurabo) to immobilize the midkine to the outer surface of the membrane. The midkine-immobilized Chemotaxicell was placed on a 24-well culture plate containing 500 μL of a medium (supplemented with 0.3% bovine serum albumin, Dulbecco's Modified Eagle's medium) supplemented with each RNA aptamer added thereto at 100 nM. 200 μL of UMR106 cells were placed in the inner layer of the Chemotaxicell chamber at a density of 1×10⁶ cells/mL, and cultured at 37° C. for 4 hours. The cells remaining in the inner layer of the Chemotaxicell chamber were removed, and the cells that had infiltrated and adhered to the midkine-applied surface were fixed with methanol. The Chemotaxicell chamber was immersed in a 1% aqueous solution of Crystal Violet for 30 minutes to stain the cells. After the Chemotaxicell chamber was washed with distilled water and dried, the pigment was extracted with a mixed solution of 200 μL of 1% SDS and 1% triton X100. 150 μL of the extract was transferred to a 96-well microplate, and its absorbance at 590 nm was determined.
(§2) The aptamer shown by SEQ ID NO:4 is 77 nucleotides long, having the 2′ position of the ribose of the pyrimidine nucleotide thereof fluoro-substituted. To enable the chemical synthesis, to reduce the toxicity, and to improve the stability in the blood, miniaturization and stabilization of this aptamer were performed. The operations of miniaturization and stabilization were performed on the basis of the secondary structure estimated by the MFOLD program, and the activity was evaluated by a cell migration inhibition experiment. In the cell migration inhibition experiment, the RNA concentration was 100 nM or 500 nM. Since some errors occur in experimental results depending on cell condition, a previously assayed sample was included as a positive control in each measurement.

Data set [2] addresses T1, midkine (full-length). Nature of the data set: cell_activity; UMR106 migration inhibition, 500 nM RNA. The method, then:
as §1, §2

In data set [3] the target is T1, midkine (full-length). Nature of the data set: cell_activity; 100 nM RNA. On the procedure:
(§3) 30 μL of 1.5 μM midkine was applied to the outer surface of the membrane of Chemotaxicell (membrane pore diameter 8 μm, manufactured by Kurabo) to immobilize the midkine to the outer surface of the membrane. The midkine-immobilized Chemotaxicell was placed on a 24-well culture plate containing 500 μL of a medium (supplemented with 0.3% bovine serum albumin, Dulbecco's Modified Eagle's medium) supplemented with each RNA aptamer added thereto at 100 nM. 200 μL of UMR106 cells were placed in the inner layer of the Chemotaxicell chamber at a density of 1×10⁶ cells/mL, and cultured at 37° C. for 4 hours. The cells remaining in the inner layer of the Chemotaxicell chamber were removed, and the cells that had infiltrated and adhered to the midkine-applied surface were fixed with methanol. The Chemotaxicell chamber was immersed in a 1% aqueous solution of Crystal Violet for 30 minutes to stain the cells. After the Chemotaxicell chamber was washed with distilled water and dried, the pigment was extracted with a mixed solution of 200 μL of 1% SDS and 1% triton X100. 150 μL of the extract was transferred to a 96-well microplate, and its absorbance at 590 nm was determined.
as §2, with “NO:5” for “NO:4”, “2′-position” for “2′ position”, “nucleotide” for “nucleotide thereof”, “The RNA concentration in” for “In”, “experiment” for “experiment, the RNA concentration”

Data set [4] has as its target T1, midkine (full-length). Put plainly: cell_activity; UMR106 migration inhibition, 500 nM RNA. On the procedure:
as §3
as §2, with “NO:5” for “NO:4”, “2′-position” for “2′ position”, “nucleotide” for “nucleotide thereof”, “The RNA concentration in” for “In”, “experiment” for “experiment, the RNA concentration”
This is another data set of the same source.

Turning to GGGAGAGGAACGACGAGGAGUAGCCGGAAAGAAGGCGGCGUC (ssRNA, 2'-F pyrimidines) [SEQ ID NO:20], the activity in the data set with midkine (full-length) [1] is 97 % of SEQ 4 inhibition.

B1: SEQ ID NO:20-3 (ssRNA)
RNA: GGGAGAGGAACGACGAGGAGUAGCCGGAAAGAAGGCGGCGUC
modifications: 2'-F pyrimidines; 2'-OMe purines of second stem: gggagaggaac(F)gac(F)gaggagu(F)ag(M)c(F)c(F)ggaaagaag(M)g(M)c(F)ggc(F)gu(F)c(F)
Consider B1, for which, in the data set with midkine (full-length) [2], the activity was 60 % of SEQ ID NO:4. The same measure, in the same setting: under GGGAGAGGAACGACGAGGAGUAGCCGGAAAGAAGGCGGCGUC (ssRNA, 2'-F pyrimidines; 2'-OMe G in loop: c(F)c(F)g(M)g(M)aaag(M)aagg) [SEQ ID NO:20-4] stands 60 % of SEQ ID NO:4; under GGGAGAGGAACGACGAGGAGUAGCCGGAAAGAAGGCGGCGUC (ssRNA, 2'-F pyrimidines; 20-1 pattern plus 2'-OMe A in loop: gga(M)aa(M)gaagg) [SEQ ID NO:20-7], 88 % of SEQ ID NO:4; under GGGAGAGGAACGACGAGGAGUAGCCGGAAAGAAGGCGGCGUC (ssRNA, 2'-F pyrimidines; 20-1 pattern plus 2'-OMe G in bulge: gag(M)g(M)ag(M)u(F)ag) [SEQ ID NO:20-6], 69 % of SEQ ID NO:4. As to GGGAGAGGAACGACGAGGAGUAGCCGGAAAGAAGGCGGCGUC (ssRNA, 2'-F pyrimidines; 20-5 pattern plus 2'-OMe A in loop: gga(M)aa(M)gaagg) [SEQ ID NO:20-8], the activity in the data set with midkine (full-length) [2] was 99 % of SEQ ID NO:4.

B2: SEQ ID NO:20-10 (ssRNA)
RNA: B1 RNA
modifications: 2'-F pyrimidines; 20-5 pattern plus 2'-OMe near 3' end: ggc(F)g(M)g(M)c(F)gu(F)c(F)
Take B2: in the data set with midkine (full-length) [2], the activity was 86 % of SEQ ID NO:4.

B3: SEQ ID NO:20-5 (ssRNA)
RNA: B1 RNA
modifications: 2'-F pyrimidines; 20-1 pattern (2'-OMe 5' single strand) plus 2'-OMe A in bulge: ga(M)gga(M)gu(F)a(M)g
For B3, the activity in the data set with midkine (full-length) [2] is 88 % of SEQ ID NO:4.

B4: SEQ ID NO:20-11 (ssRNA)
RNA: B1 RNA
modifications: 2'-F pyrimidines; 20-5 pattern plus 2'-OMe: c(F)g(M)a(M)c(F), gga(M)aa(M)gaagg, c(F)g(M)g(M)c(F)g(M)u(F)c(F)
For B4, the activity with midkine (full-length) [2] was 76 % of SEQ ID NO:4.

B5: SEQ ID NO:20-9 (ssRNA)
RNA: B1 RNA
modifications: 2'-F pyrimidines; 20-5 pattern plus 2'-OMe first stem: c(F)g(M)a(M)c(F)g and 3' g(M)u(F)c(F)
B5: the activity with midkine (full-length) [2] is 130 % of SEQ ID NO:4.

B6: SEQ ID NO:20-2 (ssRNA)
RNA: B1 RNA
modifications: 2'-F pyrimidines; 2'-OMe purines of first stem: gggagaggaac(F)g(M)a(M)c(F)g(M)aggagu(F)agc(F)c(F)ggaaagaaggc(F)ggc(F)g(M)u(F)c(F)
On to B6, for which, in the data set with midkine (full-length) [2], the activity was 84 % of SEQ ID NO:4.

B7: SEQ ID NO:20-12 (ssRNA)
RNA: B1 RNA
modifications: 2'-F pyrimidines; 20-5 pattern plus 2'-OMe: c(F)g(M)a(M)c(F), gga(M)aa(M)g(M)aagg, 3' g(M)u(F)c(F)
For B7, the activity in the data set with midkine (full-length) [2] is 53 % of SEQ ID NO:4.

B8: SEQ ID NO:20-13 (ssRNA)
RNA: B1 RNA
modifications: 2'-F pyrimidines; 20-5 pattern plus 2'-OMe: c(F)g(M)a(M)c(F), gga(M)aa(M)gaag(M)g, 3' g(M)u(F)c(F)
Turning to B8, the activity with midkine (full-length) [2] was 89 % of SEQ ID NO:4. On to GGGAGAGGAACGACGAGGAGUAGCCGGAAAGAAGGCGGCGUC (ssRNA, 2'-F pyrimidines; 2'-OMe on all purines of the 5' single-stranded part g1-a10) [SEQ ID NO:20-1], for which the activity with midkine (full-length) [2] is 109 % of SEQ ID NO:4.

GGGAGAGGAGAAGAGGAAGGCACAGGGGUUGGUGUCGGGUGCCAG (ssRNA, 2'-F pyrimidines) [SEQ ID NO:39]: the activity with midkine (full-length) [3] was 52 % of SEQ 5 inhibition.

B9: SEQ ID NO:61-3 (ssRNA)
RNA: GGGAAGGAGGAAGUGCACAGGGGUUGGUGUCGGGUGCAC
modifications: g(F)g(F)g(F)a(M)a(M)g(F)g(F)a(M)g(F)g(F)a(M)a(M)g(M)u(F)g(M)c(F)a(M)c(F)a(M)g(F)g(M)g(M)g(M)u(F)u(F)g(M)g(M)u(F)g(M)u(F)c(F)g(F)g(F)g(M)u(F)g(M)c(F)a(M)c(F); M 2'-OMe, F 2'-F
Consider B9, for which the activity in the data set with midkine (full-length) [4] is 80 % of SEQ ID NO:40. In the case of GGGAAGGAGGAAGUGCACAGGGGUUGGUGUCGGGUGCAC (ssRNA, as 61-4 plus 5' branched PEG40k and 3' idT) [SEQ ID NO:61-5], the activity with midkine (full-length) [4] is 40 % of SEQ ID NO:40.

B10: SEQ ID NO:61-4 (ssRNA)
RNA: B9 RNA
modifications: ggga(M)a(M)gga(M)gga(M)a(M)g(M)u(F)g(M)c(F)a(M)c(F)aggg(M)g(M)u(F)u(F)g(M)g(M)u(F)g(M)u(F)c(F)gggu(F)g(M)c(F)a(M)c(F); M 2'-OMe, F 2'-F
For the molecule B10, in the data set with midkine (full-length) [4], the activity was 86 % of SEQ ID NO:40.

On to GGGAAGGAGGAAGUGCACAGGGGUUGGUGUCGGGUGCAC (ssRNA, as 61-4 plus PEG30k at both ends) [SEQ ID NO:61-6], for which the activity with midkine (full-length) [4] is 57 % of SEQ ID NO:40.
